Data reported in paper PMC3826434 (Biochemistry, 2013).

Target: the molecule itself
Assay: native gel or EMSA

B1: CmlA, β-hydroxylase of the chloramphenicol biosynthetic pathway (wild type) (enzyme)
chain: MRYSLRQDIAVEPVIAGWYGWSYLLPPQTLARFVHNRFNRIVESYLDDPQVHAAAVRQRRMHGGPWIHAHEHRDAIEAWYRETAPRRERLDELFEAVRRLEEDILPRHHGECLDPVYQELPAALAGRVEVFYGRDNRTADYRFVEPLMYASEYYDESWQQVRFRPVTEDAREFALTTPMLEYGPEQLLVDVPLNSPLLDAVFRGGLTGTELDDLAARFGLDGERAARFASYFEPTPAASEAPAPASSSEEDVLEYVGHACVFARHRGTTFLVDPVLSYSGYPGGAENRFTFADLPERIDHLLITHNHQDHMLFETLLRIRHRVGRVLVPKSTNASLVDPGLGGILRRLGFTDVVEVDDLETLSCGSAEVVALPFLGEHGDLRIRSKTGWLIRFGERSVLFAADSTNISPTMYTKVAEVIGPVDTVFIGMESIGAAASWIYGPLYGEPLDRRTDQSRRLNGSNFPQAREIVDALEPDEVYVYAMGLEPWMGVVMAVDYDESHPAIVDSDLLVRHVQDKGGTAERLHLRRTLRL
For B1, the “stoichiometry N” value was 2.
